From IntAct's records for PubMed 28469241

B1: Heart- and neural crest derivatives-expressed protein 2 (Mus musculus), Q61039 (parent)
chain: MSLVGGFPHHPVVHHEGYPFAAAAAAAAAAAASRCSHEENPYFHGWLIGHPEMSPPDYSMALSYSPEYASGAAGLDHSHYGGVPPGAGPPGLGGPRPVKRRGTANRKERRRTQSINSAFAELRECIPNVPADTKLSKIKTLRLATSYIAYLMDLLAKDDQNGEAEAFKAEIKKTDVKEEKRKKELNEILKSTVSSNDKKTKGRTGWPQHVWALELKQ
partner: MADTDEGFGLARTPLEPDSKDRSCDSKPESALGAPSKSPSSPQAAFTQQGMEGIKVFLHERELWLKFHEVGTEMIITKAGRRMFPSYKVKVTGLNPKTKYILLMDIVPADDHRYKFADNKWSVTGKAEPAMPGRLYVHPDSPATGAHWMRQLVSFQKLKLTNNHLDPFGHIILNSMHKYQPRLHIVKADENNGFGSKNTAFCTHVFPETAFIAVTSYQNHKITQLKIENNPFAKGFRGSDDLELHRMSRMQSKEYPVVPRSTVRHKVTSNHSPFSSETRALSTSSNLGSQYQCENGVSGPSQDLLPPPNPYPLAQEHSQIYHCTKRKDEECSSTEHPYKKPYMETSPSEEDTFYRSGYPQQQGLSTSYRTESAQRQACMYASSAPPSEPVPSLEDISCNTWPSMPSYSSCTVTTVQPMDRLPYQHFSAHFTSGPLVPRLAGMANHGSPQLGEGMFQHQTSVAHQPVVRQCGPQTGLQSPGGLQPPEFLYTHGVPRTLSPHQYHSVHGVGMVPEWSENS

Variants of: B1
Conditions: with tbx5_mouse Tbx5, P70326
With MSLVGGFPHHPVVHHEGYPFAAAAAAAAAAAASRCSHEENPYFHGWLIGHPEMSPPDYSMALSYSPEYASGAAGLDHSHYGGVPPGAGPPGLGGPRPVKRRGTANRKERRRTQSINSAFAELRECIPNVPADTKLSKIKTLRLATSYIAYLMDLLAKDDQNGEAEAFKAEIKKTDVKEEKRKKELNEILKSTVSSNDKKTKVRTGWPQHVWALELKQ [G202V] the “effect of a mutation on the interaction” value was “decreasing interaction strength”.
